Test results taken from PMC8528861 (2021).
Where no end group is shown, it is not given here. [ ]: non-standard residue; d: D form. pY = N[C@@H](Cc1ccc(OP(=O)(O)O)cc1)C(=O)O

Tests used:
Test in all cases: SPR
[1] = biological target: M. musculus LNK SH2 domain R387H (mouse, UniProt O09039 325-438, R387H)
[2] = biological target: M. musculus LNK SH2 domain R387C (mouse, UniProt O09039 325-438, R387C)
[3] = biological target: M. musculus LNK SH2 domain (residues 324–446), wild type (mouse, UniProt O09039 324-446)
M. musculus LNK SH2 domain (residues 324–446), wild type, sequence (O09039 324-446): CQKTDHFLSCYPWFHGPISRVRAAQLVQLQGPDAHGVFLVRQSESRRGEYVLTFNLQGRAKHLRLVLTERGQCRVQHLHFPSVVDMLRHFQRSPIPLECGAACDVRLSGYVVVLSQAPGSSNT

mouse SH2B SH2 domain = mouse SH2B SH2 domain (mouse, UniProt Q91ZM2 527-625)

M. musculus LNK SH2 domain R387H, sequence (O09039 325-438 R387H): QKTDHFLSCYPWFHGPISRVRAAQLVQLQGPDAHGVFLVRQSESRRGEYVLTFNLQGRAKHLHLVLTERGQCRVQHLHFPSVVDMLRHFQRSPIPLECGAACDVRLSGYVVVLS
M. musculus LNK SH2 domain R387C, sequence (O09039 325-438 R387C): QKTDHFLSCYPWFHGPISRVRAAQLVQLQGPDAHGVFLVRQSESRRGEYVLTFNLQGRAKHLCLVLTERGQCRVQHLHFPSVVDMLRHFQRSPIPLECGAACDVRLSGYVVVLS

## FTPD[pY]ELLTEND (also: biotin, site not given here) [biotinylated JAK2 pY813 peptide]
[1]
  Kd: 242 nM
[2]
  Kd: 76 nM
[3]
  Kd: 27 nM
Mouse SH2B SH2 domain
  Kd: 108 nM
